These are literature values, as cited in paper PMC9260958.

For the data set, the target named is Cys647 (UniProt position 647, LGEVHCGTNVR). In words: chemical modification (pH dependence of enzyme inactivation kinetics). Conditions: not stated (the inactivator is not named in the sentence that gives the value).

As to “Protein arginine deiminase 2 (peptidylarginine deiminase 2, PAD2) (Homo sapiens (inferred; not stated in the article))”, the pKa result is “∼8.2”.
